Source: PMC5683061

Tests used:
[1] = target: Ferredoxin:NADP+ oxidoreductase (FNR), C. reinhardtii, recombinant soluble (C. reinhardtii) (UniProt P53991)
[2] = target: Ferredoxin:NADP+ oxidoreductase (FNR), endogenous, complex-associated (C. reinhardtii (endogenous in strain cc124)) (UniProt P53991)

Ferredoxin 1 (FDX1), C. reinhardtii (natural protein)
light-dependent NADPH production rate with FDX1 relative to FDX2 (FDX1/FDX2), PSI fractions with added soluble FNR (0.5 µM), 4 µM FDX [1]: 2.6 fold
light-dependent NADPH production rate with FDX1 relative to FDX2 (FDX1/FDX2), PSI–FNR fractions (complex-associated FNR), 4 µM FDX [2]: 23 fold
